Reference: patent US20130344509A1 (published 2013)

How the values were obtained:
Table 9 peptide No. 26 = target: T1, Table 9 peptide No. 26; assay: PEPSCAN/CLIPS peptide ELISA, 1 µg/mL antibody
T1 sequence (peptide): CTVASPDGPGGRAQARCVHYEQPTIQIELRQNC

[1] = target: T2, human TROP-2 (hTROP-2) protein endogenously expressed on the cell surface of human cancer cell lines (human, UniProt P09758 27-323); assay: FACS on PK-59 cells, 0.1 µg antibody
T2 construct: on PK-59, BxPC-3 and other human cancer cell lines, or in human tissue sections; also called TACSTD2; GA733-1
T2 sequence: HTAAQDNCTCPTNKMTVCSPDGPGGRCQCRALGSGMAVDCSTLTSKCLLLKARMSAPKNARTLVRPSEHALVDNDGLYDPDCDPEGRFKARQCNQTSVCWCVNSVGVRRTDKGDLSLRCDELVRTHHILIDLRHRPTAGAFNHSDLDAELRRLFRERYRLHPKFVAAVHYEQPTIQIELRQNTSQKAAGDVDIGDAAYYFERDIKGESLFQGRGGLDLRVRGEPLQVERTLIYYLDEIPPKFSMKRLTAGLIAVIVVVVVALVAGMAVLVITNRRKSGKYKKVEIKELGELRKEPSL
Description: (§1) Cancer cells were removed from a culture dish by a trypsin treatment, and a cell suspension was then prepared (cell density: 2×10⁶ cells/mL). An anti-hTROP-2 monoclonal antibody (0.1 μg) was added to 100 μL of the cell suspension, and they were then reacted at 4° C. for 20 minutes. The reaction solution was washed with PBS, and it was then reacted with PE-labeled anti-mouse IgG (BD Biosciences Pharmingen) (0.1 μg) (at 4° C. for 30 minutes). Thereafter, the resultant was analyzed by FACSCalibur (Becton, Dickinson and Company).
(§2) Subsequently, the reactivity of the generated anti-hTROP-2 monoclonal antibodies with human cancer cell lines (in which an hTROP-2 protein was endogenously expressed on the cell surface) was examined by FACS analysis.

[2] = target: T2, human TROP-2 (hTROP-2) protein …; assay: FACS on BxPC-3 cells, 0.1 µg antibody
Description: as §1, §2

binding of K5-116-2-1 (Table 9 peptide No. 26): 1220 | mean fluorescence intensity relative to PE-labeled anti-mouse IgG alone [1]: 122 times | mean fluorescence intensity relative to PE-labeled anti-mouse IgG alone [2]: 121 times
B1: anti-hTROP-2 monoclonal antibody clone K5-116-2-1 (antibody, V domains shown)
VH: QVQLQQPGAELVRPGASVKLSCKASGYTFTSYWITWVKQRPGQGLEWIGNIYPSDSYTNYNQKFRDKATLTVDKSSSTAYMQLSSPTSEDSAVYYCSALFDYWGQGTTLTVSS
VL: DILLTQSPAILSVSPGERVSFSCRASQSIGTSIHWYQQRTNGSPRLLIKYASESISGIPSRFSGSGSGTDFILSINSVESEDIADYYCQQSNSWPFTFGSGTKLEIK
notes: mouse IgG2a; hybridoma FERM BP-11253
